Measurements: paper PMC4267659 (Nucleic Acids Research, 2014)

Key:
Assay in all cases: native gel or EMSA
[1] = target: T1, P. horikoshii aEF1α R132L mutant (Pyrococcus horikoshii, UniProt O59153 1-428, R132L)
T1 sequence: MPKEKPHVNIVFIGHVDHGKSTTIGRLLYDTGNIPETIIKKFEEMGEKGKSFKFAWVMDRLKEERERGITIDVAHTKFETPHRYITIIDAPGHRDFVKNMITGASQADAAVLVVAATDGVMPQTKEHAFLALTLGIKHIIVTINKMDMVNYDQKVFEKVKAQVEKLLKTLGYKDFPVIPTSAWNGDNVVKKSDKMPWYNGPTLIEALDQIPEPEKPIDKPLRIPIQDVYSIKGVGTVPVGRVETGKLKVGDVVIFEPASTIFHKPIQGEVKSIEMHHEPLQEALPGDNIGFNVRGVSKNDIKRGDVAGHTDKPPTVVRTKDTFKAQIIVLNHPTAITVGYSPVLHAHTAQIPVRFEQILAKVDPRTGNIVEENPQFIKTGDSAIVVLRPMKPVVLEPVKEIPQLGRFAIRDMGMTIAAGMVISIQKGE

[2] = target: T2, P. horikoshii aEF1α L166S mutant (Pyrococcus horikoshii, UniProt O59153 1-428, L166S)
T2 sequence: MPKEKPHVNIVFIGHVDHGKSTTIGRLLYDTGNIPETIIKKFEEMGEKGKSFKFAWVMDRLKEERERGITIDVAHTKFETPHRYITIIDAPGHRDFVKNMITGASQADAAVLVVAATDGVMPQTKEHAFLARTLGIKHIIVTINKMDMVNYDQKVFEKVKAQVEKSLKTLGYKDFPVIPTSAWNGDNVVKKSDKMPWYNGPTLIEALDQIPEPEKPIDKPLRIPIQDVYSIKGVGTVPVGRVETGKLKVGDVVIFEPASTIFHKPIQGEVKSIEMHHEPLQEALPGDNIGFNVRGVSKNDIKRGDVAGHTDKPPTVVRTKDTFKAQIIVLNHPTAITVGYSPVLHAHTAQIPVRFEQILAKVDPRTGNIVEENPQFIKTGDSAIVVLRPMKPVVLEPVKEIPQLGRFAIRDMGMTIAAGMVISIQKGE

[3] = target: T3, P. horikoshii aEF1α L359S mutant (Pyrococcus horikoshii, UniProt O59153 1-428, L359S)
T3 sequence: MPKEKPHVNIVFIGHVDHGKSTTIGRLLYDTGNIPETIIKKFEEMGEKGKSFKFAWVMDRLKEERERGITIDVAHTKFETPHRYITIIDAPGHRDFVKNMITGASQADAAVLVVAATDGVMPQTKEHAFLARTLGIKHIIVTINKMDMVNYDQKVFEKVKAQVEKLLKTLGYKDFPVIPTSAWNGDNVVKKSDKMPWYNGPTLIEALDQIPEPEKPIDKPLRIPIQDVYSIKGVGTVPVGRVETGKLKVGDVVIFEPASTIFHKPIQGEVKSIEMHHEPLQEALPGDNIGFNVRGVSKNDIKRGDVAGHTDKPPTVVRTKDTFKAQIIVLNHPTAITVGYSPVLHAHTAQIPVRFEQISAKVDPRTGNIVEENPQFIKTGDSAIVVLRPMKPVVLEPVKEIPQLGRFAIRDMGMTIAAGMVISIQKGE

[4] = target: T4, P. horikoshii aEF1α A360S mutant (Pyrococcus horikoshii, UniProt O59153 1-428, A360S)
T4 sequence: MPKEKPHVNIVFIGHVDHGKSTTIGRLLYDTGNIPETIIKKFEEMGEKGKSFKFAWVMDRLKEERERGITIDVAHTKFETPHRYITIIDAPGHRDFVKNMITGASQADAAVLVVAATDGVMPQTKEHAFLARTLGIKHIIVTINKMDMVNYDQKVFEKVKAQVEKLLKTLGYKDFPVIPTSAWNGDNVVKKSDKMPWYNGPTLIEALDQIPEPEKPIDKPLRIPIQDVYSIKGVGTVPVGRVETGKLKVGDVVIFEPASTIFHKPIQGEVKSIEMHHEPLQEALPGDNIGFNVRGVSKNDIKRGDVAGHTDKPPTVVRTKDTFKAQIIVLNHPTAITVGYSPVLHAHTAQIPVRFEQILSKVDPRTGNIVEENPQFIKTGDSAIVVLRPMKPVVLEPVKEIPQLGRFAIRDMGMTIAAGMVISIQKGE

[5] = target: T5, P. horikoshii aEF1α S423L mutant (Pyrococcus horikoshii, UniProt O59153 1-428, S423L)
T5 sequence: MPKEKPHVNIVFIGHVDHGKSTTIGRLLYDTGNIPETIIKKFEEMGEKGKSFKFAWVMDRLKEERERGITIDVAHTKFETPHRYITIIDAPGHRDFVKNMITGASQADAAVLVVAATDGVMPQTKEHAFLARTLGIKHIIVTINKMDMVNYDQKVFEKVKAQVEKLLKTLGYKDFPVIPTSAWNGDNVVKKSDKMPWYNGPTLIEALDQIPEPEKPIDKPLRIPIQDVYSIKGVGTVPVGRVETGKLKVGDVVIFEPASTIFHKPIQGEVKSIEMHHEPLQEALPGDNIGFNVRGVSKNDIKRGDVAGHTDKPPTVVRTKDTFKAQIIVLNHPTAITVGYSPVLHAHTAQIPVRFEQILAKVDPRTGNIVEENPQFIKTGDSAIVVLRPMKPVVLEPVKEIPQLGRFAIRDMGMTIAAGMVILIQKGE

[6] = target: T6, P. horikoshii aEF1α K125L mutant (Pyrococcus horikoshii, UniProt O59153 1-428, K125L)
T6 sequence: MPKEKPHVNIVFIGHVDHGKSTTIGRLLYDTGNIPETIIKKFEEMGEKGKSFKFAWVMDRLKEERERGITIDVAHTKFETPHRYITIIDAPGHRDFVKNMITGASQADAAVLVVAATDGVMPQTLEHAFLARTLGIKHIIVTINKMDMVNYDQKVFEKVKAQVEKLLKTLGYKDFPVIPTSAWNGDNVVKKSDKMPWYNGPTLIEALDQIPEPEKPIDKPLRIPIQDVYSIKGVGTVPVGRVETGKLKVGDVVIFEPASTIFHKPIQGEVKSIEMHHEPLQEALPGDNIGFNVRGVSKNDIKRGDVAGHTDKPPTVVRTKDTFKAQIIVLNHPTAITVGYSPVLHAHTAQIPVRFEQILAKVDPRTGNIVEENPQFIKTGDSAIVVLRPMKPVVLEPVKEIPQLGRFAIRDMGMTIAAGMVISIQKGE

[7] = target: T7, Pyrococcus horikoshii elongation factor aEF1α, wild type (Pyrococcus horikoshii, UniProt O59153 1-428)
T7 sequence: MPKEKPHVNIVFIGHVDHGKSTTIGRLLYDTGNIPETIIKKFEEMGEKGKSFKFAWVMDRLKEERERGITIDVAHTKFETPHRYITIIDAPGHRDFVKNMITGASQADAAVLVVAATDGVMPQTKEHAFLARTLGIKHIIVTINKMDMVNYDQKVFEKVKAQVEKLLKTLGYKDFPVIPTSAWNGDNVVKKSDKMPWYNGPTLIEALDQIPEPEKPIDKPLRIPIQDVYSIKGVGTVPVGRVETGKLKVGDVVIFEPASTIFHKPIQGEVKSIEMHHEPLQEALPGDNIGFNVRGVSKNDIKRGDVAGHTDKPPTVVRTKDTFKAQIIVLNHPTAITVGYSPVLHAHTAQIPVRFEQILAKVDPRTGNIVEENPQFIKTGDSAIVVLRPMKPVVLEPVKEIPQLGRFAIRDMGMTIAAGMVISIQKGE

Measured: binding result

B1: Pyrococcus horikoshii ribosomal stalk protein aP1, wild type (natural protein, UniProt O57705 1-108, looked up)
chain: MEYVYAALLLHSVGKEINEENLKAVLQAAGVEPEEARIKALVAALEGVNIDEVIEKAAMPVAVAAAPAAAPAEAGGEEKKEEEKKEEEEKEEEVSEEEALAGLSALFG
binds: [1] | [2] | [3] | [4] | [5] | [6]

B2: P. horikoshii aP1 L100S mutant (natural protein, Pyrococcus horikoshii, UniProt O57705 1-108, looked up)
chain: MEYVYAALLLHSVGKEINEENLKAVLQAAGVEPEEARIKALVAALEGVNIDEVIEKAAMPVAVAAAPAAAPAEAGGEEKKEEEKKEEEEKEEEVSEEEASAGLSALFG
binds: [7]
